Test results: article PMC10397247

Columns and labels:
[1] = molecular target: T1, 4H850-bN; assay: two-hybrid library CCNG1;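 note: natural log of median RNA to DNA barcode read ratio; higher means stronger binding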
T1 chain: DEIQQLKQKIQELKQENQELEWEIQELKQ

[2] = molecular target: T2, 4H619-bN; assay: two-hybrid library CCNG1;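 note: natural log of median RNA to DNA barcode read ratio; higher means stronger binding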
T2 chain: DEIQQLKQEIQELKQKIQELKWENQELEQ

[3] = molecular target: T3, P7A; assay: two-hybrid library CCNG1;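 note: natural log of median RNA to DNA barcode read ratio; higher means stronger binding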
T3 chain: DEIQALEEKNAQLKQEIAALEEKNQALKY

[4] = molecular target: T4, 4H584-bN; assay: two-hybrid library CCNG1;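 note: natural log of median RNA to DNA barcode read ratio; higher means stronger binding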
T4 chain: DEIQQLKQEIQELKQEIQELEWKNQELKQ

[5] = molecular target: T5, 4H906-bN; assay: two-hybrid library CCNG1;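 note: natural log of median RNA to DNA barcode read ratio; higher means stronger binding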
T5 chain: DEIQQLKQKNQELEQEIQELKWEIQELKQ

[6] = molecular target: T6, 4H570-bN; assay: two-hybrid library CCNG1;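 note: natural log of median RNA to DNA barcode read ratio; higher means stronger binding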
T6 chain: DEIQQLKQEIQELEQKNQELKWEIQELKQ

[7] = molecular target: T7, 4H3628-bH; assay: two-hybrid library CCNG1
T7 chain: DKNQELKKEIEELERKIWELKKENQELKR

[8] = molecular target: T8, 4H591-bH; assay: two-hybrid library CCNG1
T8 chain: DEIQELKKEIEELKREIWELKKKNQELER

[9] = molecular target: T9, 4H3497-bH; assay: two-hybrid library CCNG1
T9 chain: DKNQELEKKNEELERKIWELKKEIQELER

[10] = molecular target: T10, 4H906-bH; assay: two-hybrid library CCNG1
T10 chain: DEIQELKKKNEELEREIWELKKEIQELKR

[11] = molecular target: T11, 4H3926-bH; assay: two-hybrid library CCNG1
T11 chain: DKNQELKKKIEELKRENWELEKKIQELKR

[12] = molecular target: T12, O2-bN; assay: two-hybrid library CCNG1
T12 chain: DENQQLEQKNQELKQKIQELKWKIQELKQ

[13] = molecular target: T13, 4H3462-bH; assay: two-hybrid library CCNG1
T13 chain: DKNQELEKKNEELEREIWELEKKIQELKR

[14] = molecular target: T14, 4H3613-bH; assay: two-hybrid library CCNG1
T14 chain: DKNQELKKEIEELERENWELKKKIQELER

[15] = molecular target: T15, 4H626-bH; assay: two-hybrid library CCNG1
T15 chain: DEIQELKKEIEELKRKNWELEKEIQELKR

[16] = molecular target: T16, 4H3782-AA; assay: two-hybrid library CCmax; settings: mean of both orientations
T16 chain: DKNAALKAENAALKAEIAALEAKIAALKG

[17] = molecular target: T17, 4H3705-AA; assay: two-hybrid library CCmax; settings: mean of both orientations
T17 chain: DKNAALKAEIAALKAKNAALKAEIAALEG

[18] = molecular target: GCN2_T; assay: two-hybrid library CCmax
[19] = molecular target: T18, 4H465-AA; assay: two-hybrid library CCmax; settings: mean of both orientations
T18 chain: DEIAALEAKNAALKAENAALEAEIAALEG

[20] = molecular target: T19, 4H486-AA; assay: two-hybrid library CCmax; settings: mean of both orientations
T19 chain: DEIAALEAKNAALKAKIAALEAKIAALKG

[21] = molecular target: T20, P3-AA; assay: two-hybrid library CCmax
T20 chain: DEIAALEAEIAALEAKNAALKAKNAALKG

[22] = molecular target: T21, 4H535-AA; assay: two-hybrid library CCmax; settings: mean of both orientations
T21 chain: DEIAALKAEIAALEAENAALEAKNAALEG

[23] = molecular target: T22, 4H895-AA; assay: two-hybrid library CCmax; settings: mean of both orientations
T22 chain: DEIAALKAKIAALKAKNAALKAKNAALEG

[24] = molecular target: 4H_GCN4; assay: two-hybrid library CCmax
[25] = molecular target: T23, 4H355-AA; assay: two-hybrid library CCmax; settings: mean of both orientations
T23 chain: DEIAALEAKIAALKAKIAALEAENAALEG

[26] = molecular target: T24, 4H3365-AA; assay: two-hybrid library CCmax
T24 chain: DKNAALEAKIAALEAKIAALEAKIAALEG

[27] = molecular target: T25, 4H58-AA; assay: two-hybrid library CCmax; settings: mean of both orientations
T25 chain: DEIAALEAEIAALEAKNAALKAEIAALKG

[28] = molecular target: T26, 4H3651-AA; assay: two-hybrid library CCmax; settings: mean of both orientations
T26 chain: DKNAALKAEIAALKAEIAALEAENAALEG

[29] = molecular target: T27, 4H_BCR; assay: two-hybrid library CCmax; settings: mean of both orientations
T27 chain: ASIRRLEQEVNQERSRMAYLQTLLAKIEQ

[30] = molecular target: T28, 4H_APH; assay: two-hybrid library CCmax; settings: mean of both orientations
T28 chain: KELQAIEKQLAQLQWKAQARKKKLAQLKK

4H_GCN4, sequence (chain, as listed by the source): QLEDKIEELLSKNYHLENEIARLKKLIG

B1: 4H570-bN (peptide)
chain: DEIQQLKQEIQELEQKNQELKWEIQELKQ
[1]
  interaction score: 1.82
[2]
  interaction score: -1.3
[3]
  interaction score: -1.87
[4]
  interaction score: 0.131
[5]
  interaction score: -1.16
[6]
  interaction score: 0.618

B2: 4H3462-bH (peptide)
chain: DKNQELEKKNEELEREIWELEKKIQELKR
[7]
  interaction score: 0.726
[8]
  interaction score: -0.285
[9]
  interaction score: 1.43
[10]
  interaction score: 0.0503
[11]
  interaction score: 0.869
[12]
  interaction score: 1.13
[13]
  interaction score: 0.634
[14]
  interaction score: -0.585
[15]
  interaction score: -0.748

B3: 4H3365-AA (peptide)
chain: DKNAALEAKIAALEAKIAALEAKIAALEG
[16]
  interaction score: -1.46
[17]
  interaction score: -1.25
[18]
  interaction score: -1.79
[19]
  interaction score: -1.05
[20]
  interaction score: -1.2
[21]
  interaction score: -2.3
[22]
  interaction score: -1.33
[23]
  interaction score: -1.35
[24]
  interaction score: -1.72
[25]
  interaction score: -0.823
[26]
  interaction score: 1.76
[27]
  interaction score: -1.67
[28]
  interaction score: -0.441
[29]
  interaction score: -1.47
[30]
  interaction score: -1.21
